Assay results from patent US20210008162A1 (OP T, published 2021).
Where no end group is shown, it is not given here.

Assays:
[1] = biological target: T1, mouse CD40 on cells (CD40+ T cells / Th40 cells and B cells of NOD mice; mouse CD4+CD40+ cells in culture) (mouse, UniProt P27512 20-289); test: KGYY-15 bound to live CD4+CD40+ cells kept in culture for 10 days, percent bound over days post treatment; the text says 'human or mouse' cells
T1 construct: whole, on cells; The target is inferred from CD40+ cells; No purified CD40 was tested; also called CD40 protein
T1 sequence (looked up): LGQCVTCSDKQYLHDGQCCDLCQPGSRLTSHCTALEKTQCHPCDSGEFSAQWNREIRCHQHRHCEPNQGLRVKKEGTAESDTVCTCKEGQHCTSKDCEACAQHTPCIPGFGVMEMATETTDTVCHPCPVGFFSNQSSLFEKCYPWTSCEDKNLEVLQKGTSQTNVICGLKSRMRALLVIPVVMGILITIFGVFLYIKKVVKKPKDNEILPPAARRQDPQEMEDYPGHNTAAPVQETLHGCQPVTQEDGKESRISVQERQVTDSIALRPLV

[2] = biological target: T2, human CD40 on CD4+CD40+ cells (human, UniProt P25942 21-277); test: as above
T2 construct: whole, on cells
T2 sequence (P25942 21-277): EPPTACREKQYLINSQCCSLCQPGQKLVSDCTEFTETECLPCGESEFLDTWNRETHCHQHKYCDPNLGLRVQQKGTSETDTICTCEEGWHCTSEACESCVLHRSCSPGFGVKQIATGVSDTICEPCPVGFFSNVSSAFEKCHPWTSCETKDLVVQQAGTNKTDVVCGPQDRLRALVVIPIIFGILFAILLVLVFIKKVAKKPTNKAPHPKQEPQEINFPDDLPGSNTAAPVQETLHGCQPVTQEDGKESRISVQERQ

binding result [1]: binds
binding result [2]: binds
B1: KGYY-15 (SEQ ID NO:11) (peptide)
peptide: VLQWAKKGYYTMKSN-NH2
notes: also called 15-mer-Form 1
